Test results reported in patent US20050272649A1, “Conjoint administration of morphogens and ACE inhibitors in treatment of chronic renal failure” (priority 2002, published 2005).
“Also recorded” adds a separate entry of the source. Like-named read-outs stand apart in the source and are kept apart here.

B1: OP-1: osteogenic protein-1 (OP-1, also known as BMP-7), morphogen of the OP/BMP family; OP-1 used interchangeably with sBMP-7 (protein)
chain: STGSKQRSQNRSKTPKNQEALRMANVAENSSSDQRQACKKHELYVSFRDLGWQDWIIAPEGYAAYYCEGECAFPLNSYMNATNHAIVQTLVHFINPETVPKPCCAPTQLNAISVLYFDDSSNVILKKYRNMVVRACGCH

Experiments:
[1] = system: rat remnant kidney model (5/6 NPX); test: rat partial (5/6) nephrectomy chronic renal failure injury model; assay type: in vivo
Source text: A rat partial (5/6) nephrectomy or rat remnant kidney model (RRKM) model was employed essentially as described (Vukicevic, et al. (1987) J. Bone Mineral Res. 2: 533, the entire content of which is incorporated herein by reference). Male Munich-Wistar rats (2-3 months old, weighing about 200-250 g) were subjected to renal mass ablation. Specifically, the right kidney is excised in conjunction with selective ligation of the left renal artery branches such that one third of the kidney remains perfused (5/6 NPX, see FIG. 12). Immediately following surgery, plasma creatinine and BUN levels rise dramatically due to the loss of renal mass and function. Over the next several weeks of this “acute” failure phase, plasma creatinine and BUN levels of surviving animals decline somewhat toward normal values but remain elevated. Renal function then appears to remain relatively constant or stable for a period of variable duration. After this point, the animals enter a period of chronic renal failure in which there is an essentially linear decline in renal function ending in death. For these reasons, animals are given 4 weeks of recovery prior to initiation of treatments.
Four weeks after nephrectomy, rats were divided into four treatment groups (see Table III), namely OP-1 (150 μg/kg body weight, 3×/week, by i.p. injection), Vehicle (20 mM arginine/150 mM NaCl, 0.1% Tween-80, pH 9.0, 1 ml/kg body weight, 3×/week, by i.p. injection), enalapril (100 mg/L in drinking water, 8-16 mg/kg body weight), and OP-1 with enalapril. For the first two groups (OP-1 and Vehicle), animals were sacrificed 14 weeks after nephrectomy. For the last two groups (enalapril, and OP-1 with enalapril), animals were sacrificed 26 weeks after nephrectomy. As surgical controls, rats were subjected to a “sham” operation in which the kidneys were decapsulated but no renal tissue was removed. Sham-treated animals were sacrificed 26 weeks after operation. None of the rats died in any group during this study. Systolic blood pressure, urine protein and/or glomerulosclerosis were monitored at intervals between 4 and 26 weeks post surgery.

[2] = system: streptozotocin-induced diabetic Sprague-Dawley rats; test: Streptozotocin-induced diabetic nephropathy model (Example 3); assay type: in vivo, rat; details: for proteinuria level: OP-1 30 and 100 μg/kg, enalapril 50 and 100 mg/L, or combination, diabetic about 140 mg/day
Description: Streptozotocin kills pancreatic β cells and induces type I diabetes (for review, see Cheta et al. (1998) J Pediatr Endocrinol Metab 11:11-9). It is widely used to induce experimental diabetic nephropathy in animals (see FIG. 22). Adult female Sprague-Dawley rats (weighing 200-250 g) were intraperitoneally injected with streptozotocin (60 mg/kg body weight) to induce hyperglycemia. Hyperglycemic rats then received daily injections of insulin to maintain blood glucose between 200-400 mg/dL. At week 16 when renal function declined, animals were treated weekly with OP-1 (10, 30 or 100 μg/kg body weight), enalapril (50 or 100 mg/L in drinking water) or a combination of OP-1 and enalapril. Control animals without streptozotocin treatment were handled in all other ways like treated animals. Animals were sacrificed at week 32 post-streptozotocin treatment.

[3] = system: unilateral ureteral ligation in Sprague-Dawley rats; details: cited from earlier work; for renal blood flow (RBF): during UUO; for interstitial inflammation, fibrogenesis / renal (tubulointerstitial) fibrosis: OP-1 100 or 300 μg/kg, first 5 days after obstruction, compared with enalapril
[4] = summary of the nephrectomy model

Row | Molecule | proteinuria level (late-stage) ([1]; enalapril 100 mg/L drinking water with or without OP-1, up to 26 weeks after nephrectomy) [mg/day] | proteinuria level [2] | tubular atrophy ([3]; UUO rats) | renal blood flow (RBF) [3] | blood pressure level ([1]; OP-1 150 μg/kg i.p. 3×/week from 4 weeks after nephrectomy, to 14 weeks) | glomerular filtration rate [1, 4] | glomerulosclerosis [1, 4] | mean GFR ([2]; OP-1 100 μg/kg weekly, weeks 16-32, 32-week diabetic animals about 0.38) | glomerular filtration rate (in words) ([2]; weeks 16-32 treatment) | interstitial inflammation, fibrogenesis / renal (tubulointerstitial) fibrosis [3] | interstitial inflammation, fibrogenesis / renal (tubulointerstitial) fibrosis ([3]; listed as OP-1/BMP-7) | epithelial cell apoptosis produced by UUO ([3]; UUO rats) | tubular epithelial disruption ([3]; UUO rats)
1 | CCOC(=O)[C@H](CCc1ccccc1)N[C@@H](C)C(=O)N1CCC[C@H]1C(=O)O [enalapril, N-(1-ethoxycarbonyl-3-phenylpropyl)-L-ananyl-L-proline, reference compound] | 105 | almost normal level; also recorded: significantly reduced the proteinuria level | an effect not shared with ACEI enalapril | also stimulated RBF |  |  |  |  |  |  |  |  | 
2 | B1 |  | almost normal level; also recorded: reduces proteinuria; also recorded: significantly reduced the proteinuria level | prevention of tubular atrophy; also recorded: reduces tubular atrophy | preserved renal blood flow | did not dramatically lower the blood pressure level | improves glomerular filtration rate | reduces glomerulosclerosis | about 0.7 ml/min/100 g body weight | significantly increased the glomerular filtration rate; also recorded: increases the glomerular filtration rate | prevented interstitial inflammation and fibrogenesis; also recorded: more effective in preventing tubulointerstitial fibrosis and in preserving renal function; also recorded: reduces renal fibrosis | Inhibits renal fibrosis | blocked the stimulation of epithelial cell apoptosis | inhibited tubular epithelial disruption
